The values that follow come from US6566505 (THOMAS JEFFERSON UNIVERSITY, dated 2003).

Data set [1] concerns the target T1, bacterially expressed recombinant Mch6 (6His-C terminal tagged protein) (human, UniProt P55211 1-416).
T1 construct: also called purified Mch6 protein; mammalian ced-3 homolog 6; not shown: C-terminal 6His tag from vector pET21b
T1 chain: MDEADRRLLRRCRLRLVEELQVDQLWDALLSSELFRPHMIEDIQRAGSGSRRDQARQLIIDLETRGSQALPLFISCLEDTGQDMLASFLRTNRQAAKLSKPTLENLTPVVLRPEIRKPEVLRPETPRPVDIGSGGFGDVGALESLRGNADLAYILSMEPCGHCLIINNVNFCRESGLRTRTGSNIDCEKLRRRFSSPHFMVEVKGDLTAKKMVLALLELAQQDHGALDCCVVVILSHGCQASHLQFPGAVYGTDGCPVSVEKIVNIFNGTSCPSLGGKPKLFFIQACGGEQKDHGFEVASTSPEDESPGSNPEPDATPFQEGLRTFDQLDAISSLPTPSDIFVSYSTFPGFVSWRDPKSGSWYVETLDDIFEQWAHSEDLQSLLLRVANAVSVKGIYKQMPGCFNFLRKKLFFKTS
The data set is described as follows: inhibition of the hydrolysis of 50 µM DEVD-AMC by recombinant Mch6 after 30 min preincubation with DEVD-CHO, continuous fluorometric assay.

The target of data set [2] is T2, ZEVD-AMC (carbobenzoxy-Glu-Val-Asp-aminomethylcoumarin).
T2 chain: EVD

The target of data set [3] is T3, YVAD-AMC (Tyr-Val-Ala-Asp-aminomethylcoumarin).
T3 chain: YVAD

Data set [4] concerns the target T4, DEVD-AMC (Asp-Glu-Val-Asp-aminomethylcoumarin).
T4 chain: DEVD

Data set [5] concerns the target T5, wild type proMch6 (35S-labeled, in vitro translated).
T5 chain: T1 chain

Broadly, the Ki is the equilibrium dissociation constant of an inhibitor or competing ligand from its target.

Ends that are not written are not given here.

B1: DEVD-CHO (Asp-Glu-Val-Asp-aldehyde) (peptide)
peptide: DEVD-aldehyde
notes: Tetrapeptide aldehyde substrate analog; also called DEVD-CHO peptide
As for B1, in data set [1], the Ki is less than 10 nM.

B2: bacterially expressed recombinant Mch6 (6His-C terminal tagged protein) (protein)
chain: T1 chain
With B2, the Vmax/Km (ZEVD-AMC) in data set [2] came to 2.7. The Vmax/Km (YVAD-AMC) in data set [3] was less than 0.1. In addition, in data set [4], the Km (DEVD-AMC) is 10 µM and the Vmax/Km (DEVD-AMC) is 100.

B3: purified recombinant human CPP32 (protein)
chain: SGISLDNSYKMDYPEMGLCIIINNKNFHKSTGMTSRSGTDVDAANLRETFRNLKYEVRNKNDLTREEIVELMRDVSKEDHSKRSSFVCVLLSHGEEGIIFGTNGPVDLKKITNFFRGDRCRSLTGKPKLFIIQACRGTELDCGIETDSGVDDDMACHKIPVEADFLYAYSTAPGYYSWRNSKDGSWFIQSLCAMLKQYADKLEFMHILTRVNRKVATEFESFSFDATFHAKKQIPCIVSMLTKELYFYH
With B3, in data set [5], the “processing of 35S-labeled proMch6 (Tricine-SDS-PAGE and autoradiography)” value is “CPP32 cleaves proMch6 at one site to generate two cleavage products of approximately 37 kDa or p37 and approximately 10 kDa or p10”.
